Target: human mu opioid receptor, N-terminally his-tagged (human) (UniProt P35372)
Test: SPR; Biacore-X, 25°C; OPRM captured on a Ni-NTA sensor chip (about 4000 RU), second cell as reference; running Buffer B (5 mM NaHPO4, 10% glycerol, 0.07% Fos-12, pH 7.5); EM-1 injected at 10, 30, 50, 60, 80, 100 nM, 5 µl/min, no regeneration; 1:1 interaction model

Chain of UniProt P35372 (P35372 whole entry): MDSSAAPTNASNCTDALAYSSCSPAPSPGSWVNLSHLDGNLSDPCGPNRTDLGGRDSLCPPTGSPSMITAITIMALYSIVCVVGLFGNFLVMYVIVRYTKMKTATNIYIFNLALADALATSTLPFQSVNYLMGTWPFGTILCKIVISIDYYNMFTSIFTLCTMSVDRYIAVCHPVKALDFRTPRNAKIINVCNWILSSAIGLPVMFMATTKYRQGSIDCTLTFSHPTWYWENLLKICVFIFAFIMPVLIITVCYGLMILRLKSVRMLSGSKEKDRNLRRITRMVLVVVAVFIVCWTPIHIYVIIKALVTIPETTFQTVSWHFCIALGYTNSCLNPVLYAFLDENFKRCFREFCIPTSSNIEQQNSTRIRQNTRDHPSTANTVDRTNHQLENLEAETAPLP

Kd: 60.9 nM
Substance: endomorphin-1 (peptide)
